Experimental data: paper PMC4441422

Tests used:
[1] = biological target: T1, full-length catalytic domain of human N-myristoyltransferase 1 (hNMT1s) (human) (UniProt P30419)
T1 sequence: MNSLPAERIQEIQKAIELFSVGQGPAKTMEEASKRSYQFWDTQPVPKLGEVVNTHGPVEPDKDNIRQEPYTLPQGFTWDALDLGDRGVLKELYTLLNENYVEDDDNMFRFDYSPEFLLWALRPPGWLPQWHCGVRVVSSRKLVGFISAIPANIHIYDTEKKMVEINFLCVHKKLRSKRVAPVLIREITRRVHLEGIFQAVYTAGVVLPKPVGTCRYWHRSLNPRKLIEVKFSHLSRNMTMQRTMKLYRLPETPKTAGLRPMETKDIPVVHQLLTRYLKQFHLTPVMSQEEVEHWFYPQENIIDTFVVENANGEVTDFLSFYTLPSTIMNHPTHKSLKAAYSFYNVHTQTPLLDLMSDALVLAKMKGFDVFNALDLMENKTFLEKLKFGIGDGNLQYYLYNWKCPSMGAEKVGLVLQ

[2] = biological target: T2, truncation mutant of hNMT1s devoid of 28 N-terminal amino acids (Δ28-hNMT1s) (human) (UniProt P30419)
T2 sequence: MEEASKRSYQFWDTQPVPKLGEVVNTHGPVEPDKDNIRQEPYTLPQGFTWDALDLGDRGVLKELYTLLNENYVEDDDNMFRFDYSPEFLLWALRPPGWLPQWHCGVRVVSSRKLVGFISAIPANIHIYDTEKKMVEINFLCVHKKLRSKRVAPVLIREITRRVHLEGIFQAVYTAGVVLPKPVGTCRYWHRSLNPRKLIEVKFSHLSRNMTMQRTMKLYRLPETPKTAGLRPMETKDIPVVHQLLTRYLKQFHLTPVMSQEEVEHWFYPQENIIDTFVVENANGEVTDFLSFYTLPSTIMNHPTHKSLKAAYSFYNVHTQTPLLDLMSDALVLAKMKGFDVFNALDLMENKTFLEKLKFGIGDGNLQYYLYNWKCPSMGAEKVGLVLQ

GSNKSKPK [peptide substrate corresponding to the N-terminal sequence of pp60src (amino acids 2-9)]
K m (μM) for the peptide in the myristoylation reaction (fluorescence assay of CoA release with CPM; peptide 1-50 μM, MYA 30 μM, 5 nM enzyme, 25°C) [1]: 25.7 µM
K m (μM) for the peptide in the myristoylation reaction (fluorescence assay of CoA release with CPM; peptide 1-50 μM, MYA 30 μM, 5 nM enzyme, 25°C) [2]: 14.4 µM
